Patent US20210300999A1

What was measured:
[1] = target: SARS-CoV S2Pecto (SARS-CoV) (UniProt P59594); experiment: ELISA on coated antigen
[2] = target: recombinant receptor binding domain (RBD) of SARS-CoV-2 spike protein, residues 319-528, deglycosylated (SARS-CoV-2) (UniProt P0DTC2); experiment: crystal structure RBD/COV2-2196/COV2-2130
[3] = target: recombinant receptor binding domain (RBD) of SARS-CoV-2 spike protein, residues 319-528, deglycosylated (SARS-CoV-2) (UniProt P0DTC2); experiment: crystal structure RBD/COV2-2196

Sequence of COV2-2196 Fab (recombinant, wt sequence) (VH): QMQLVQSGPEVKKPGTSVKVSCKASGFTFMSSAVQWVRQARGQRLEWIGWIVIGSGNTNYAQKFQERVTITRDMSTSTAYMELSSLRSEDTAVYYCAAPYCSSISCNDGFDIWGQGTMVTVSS
Sequence of COV2-2196 Fab (recombinant, wt sequence) (VL): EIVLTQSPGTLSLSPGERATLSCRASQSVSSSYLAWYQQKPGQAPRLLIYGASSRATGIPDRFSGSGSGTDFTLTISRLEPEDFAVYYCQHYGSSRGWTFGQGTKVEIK

Row | Substance | EC50 [1] [ng/mL] | further results
1 | COV2-2094 (antibody) | 11.7 | –
2 | COV2-2196 Fab (recombinant, first two amino acids of the variable region mutated from QM to EV) | – | buried surface area of the interface [2]: 650 Å^2
3 | COV2-2196 Fab (recombinant, wt sequence) | – | buried surface area of the interface [3]: 650 Å^2
4 | rCR3022 (recombinant form of the cross-reactive SARS-CoV SRBD mAb CR3022) (antibody) | 5.2 | –
